{"source": "the DeepSol protein solubility set"}
{"assay": "soluble on expression in E. coli; label from the status in PepcDB or PDB records"}
{"sequence": "MMFGRFTERAQKVLALSQEEAIRIGHNNIGTEHILLGLVREGEGIAAKALIALGLSPEKVQKEVEALIGRGTEASQTVHYTPRAKKVIELSMDEARKLGHSYVGTEHILLGLIREGEGVAARVLNNLGVSLNKARQQVLQLLGSNEASSGHQGGSSTNANTPTLDSLARDLTVVARENRLDPVIGRGKEIQRVIEVLSRRTKNNPVLIGEPGVGKTAIAEGLAQQIVNNEVPETLRDKRVMTLDMGTVVAGTKYRGEFEDRLKKVMDEIRQAGNIILFIDELHTLIGAGGAEGAIDASNILKPSLARGELQCIGATTLDEYRKYIEKDAALERRFQPIHVDEPSLDESTQILKGLRDRYEAHHRVSITDDAIDAAVKLSDRYITDRFLPDKAIDLIDEAASKVRLRSYTTPPNLKELEVKLEEIRKEKDAAVQSQEFEKAASLRDMEQRLREKLEDTKRQWKEQQGKENSEVTVEDIANVVSTWTRIPVSKLAQTETDKLLNLESILHDRVIGQDEAVVAVAKAVRRARAGLKDPKRPIGSFIFLGPTGVGKTELARALAESMFGDEDAMIRIDMSEYMEKHSTSRLVGSPPGYVGYEEGGQLTEKVRRKPYSVVLLDEVEKAHPDVFNILLQVLEDGRLTDSKGRTVDFRNTIVIMTSNVGAEALKRNKHLGFNVQDESRDYSDMKGKVMDELKKAFRPEFLNRIDEIIVFHMLEKKHIQEIVTLMVNQLVNRLKEQEIELHLTEGAISAIADKGFDREYGARPLRRAIQKHVEDRLSEELLKGAIEKGQKVIFDVEGESFVIHSAEKVK", "soluble on expression in E. coli": "soluble"}
{"sequence": "MNNKRTKGENVYQLVQKRLKFLFNEFDNIYVSFSGGKDSGVLLNLCIQYIREHNLDRKIGVYHMDYEAQYQMTTEYVEQTFRENQDILEIYHVCVPFKVVTCASMFQTYWRPWDESMHAHWVRPMPKNCYKKEDFPFYNEEMWDYTFQTSFASWYHKKHDAVRTCCLVGIRTQESLDRWRTIHGNNRLNSYHNLMWTRRLGYDLYNAYPIYDWTTEDIWTAYARFKWPFNQMYELYYK", "soluble on expression in E. coli": "not soluble"}
{"sequence": "MGSDKIHHHHHHMGIDELYKKEFGIVAGVDEAGRGCLAGPVVAAAVVLEKEIEGINDSKQLSPAKRERLLDEIMEKAAVGIGIASPEEIDLYNIFNATKLAMNRALENLSVKPSFVLVDGKGIELSVPGTCLVKGDQKSKLIGAASIVAKVFRDRLMSEFHRMYPQFSFHKHKGYATKEHLNEIRKNGVLPIHRLSFEPVLELLTDDLLREFFEKGLISENRFERILNLLGARKSVVFRKERTNHNLPLF", "soluble on expression in E. coli": "soluble"}
{"sequence": "SPWSQDRVEHLYEQVAAENSVDLLKKGQFQGTPDGSSVVFIDDIKDSTLSNVFVAQMRPRDSVLPSVMFSSSGEVKELSDGRQVITMQEGTRYEGVPTRVEYMITKFDEYEGVIGQREVKQKGRDWEAYPTADLIGHPDPEAQAELQWR", "soluble on expression in E. coli": "not soluble"}
{"sequence": "MGSDKIHHHHHHMGNRRGFLKMSASLAAAPLIPESSAVSNELDIPVSNKRPHELARDEAHWRAVGRLYSIQEEIINLEHGYWGQMSIPVEQALARHTHRVNRELSWYARREYDRDFLKARAAVADALGVSVEELMLTRNATESFVNLITQYDELSSGNAILWADADYPEFKRMMSWLAESRQVRGTMLSLPAAGTDEDYIRIYREAFDALPDLKLMLLTHVSNQHGLVLPVREIAAIAKCRGIHVICDCAQSWGLLDFTLDDLNVDWAVFNLHKWIGSPVGVGALYMRHGTLVPVRPFPGEDSSDTDVANRVHLATSDFASFLTVPDALAFHRAIGGANKQARLNYLREAWVASLEGSSAVEVLGATGSKNASGMGAFRLRGQTSKVQVSALQTRLETEFRIFTVVRNDLASGACIRVTPQVFTPLEHVQALADAIVEISVTG", "soluble on expression in E. coli": "not soluble"}
{"sequence": "MGHHHHHHSHMPKHPSQSTVCQKGTPNSASKTKDKVNKRNERGETRLHRAAIRGDARRIKELISEGADVNVKDFAGWTALHEACNRGYYDVAKQLLAAGAEVNTKGLDDDTPLHDAANNGHYKVVKLLLRYGGNPQQSNRKGETPLKVANSPTMVNLLLGKGTYTSSEESSTESSEE", "soluble on expression in E. coli": "soluble"}
{"sequence": "MDFLQGDRGDYKSALGSLQQVGYGSVIAKIRLAFNATGSVLRKRVLKEEQIEETVAKELEERRRTWDVNNGQFDKFSQWYIEYRKNLWHKDDYLPWLLYENEISCLKLTFDVCERPPRRINYGGRNRYTCEN", "soluble on expression in E. coli": "not soluble"}
{"sequence": "MMKFDNSYAHLPERFSAAVLPTPVKAPRLIAFNRTLAEELLLDVADLDDDRLAAIFSGNVVPQGAEPLAMAYAGHQFGGFVPQLGDGRAILLGEVIDVNGRRRDIQLKGSGPTPFSRRGDGRAALGPVLREYIVSEAMFALGIPATRALAAVLSGDRVQREVGLPGGVFTRVAASHIRVGTFQFFAAREDDEAIRSLADYVIDRHYPDAKNTENPYLALLRGIAERQCALIARWMMVGFIHGVMNTDNMAVSGETIDFGPCAFLDEYHPNKVFSSIDAQGRYAYNNQPGIAQWNIARLAECLLPLLDPEVEKAAELANAVLADFAAAFPQRWLTGMREKLGLTTEEEGDMDLIQSLLSLMQASEADFTLTFRRLSHAANGDAEPFRGMFIDIAGADAFLTRWRERAGREGISDSERSAAMLSINPAIIPRNHRIEELIEAAVEDGDFEPFHAMLTAIATPFEERPDNFVYMQPPMSHERVFRTFCGTLEHHHHHH", "soluble on expression in E. coli": "soluble"}
{"sequence": "MSLKNIRHIYYVSENTGLLAKDSGKSLLCQFPGVEFQEELLPFIRTKDDAQRTINAIREKCGEEKPIIFSTIFDPEINKILQHEDVILLNICEPFLTQLEGMLGKNALRASGHSRNVDQQIMSNRVDAIHYTISHDDGTAIMDYEEADLIIVGVSRSGKTPISVFLATQMGIKTANYPLVEQDLTFCQLPEDIIKNKHKVVGLSISPDVLHTFREQRYKGSHYAQMSTCKRETLQSKRIFEKYDLPVVFSDARSIEETATQVAQELSKQWNPIFEGHHHHHH", "soluble on expression in E. coli": "soluble"}
{"sequence": "MAVNLYDYANQLEQALRESEEYKAIKEAFANVKANEESKKLFDEFRETQINFQQKQMQGEEIAEEDLQKAQEQAQAIEKDENISALMNAEQKMSQVFQEINQIIVKPLDEIYAD", "soluble on expression in E. coli": "not soluble"}
{"sequence": "MAHHHHHHMSDAQTVQTLVLWNGEWPYVKRGVSEVRAVAAGVIASANALVDVPAYLARARKYTAAADDFVTAQSARASSTLESHQWVVPAAGIALASVYVVVRSAPWGGMKMMRNGLVTAGALTAFMYPREIVHQIDRAMPFQAPASISEQKNES", "soluble on expression in E. coli": "not soluble"}
{"sequence": "MDPKAEGNGENITETAAGNVETSDFVNLKRQKREGVNSTGMSEIDMTGSQETPEHNMHGSPTHTDDLGPRLDADMLDSQSSHVSSSAQGNRSEVENELSNLFAKMALPGHDRRTDEYILVRQTGQDKFAGTTKCNLDHLPTKAEFNASCRLYRDGVGNYYPPPLAFERIDLPEQLAAQLHNLEPREQSKQCFQYKLEVWNRAHAEMGITGTDIFYQTDKNIKLDRNYKLRPEDRYIQTEKYGRREIQKRYEHQFQAGSLLPDILIKTPQNDIHFSYRFAGDAYANKRFEEFERAIKTKYGSDTEIKLKSKSGIMHDSKYLESWERGSADIRFAEFAGENRAHNKQFPAATVNMGRQPDGQGGMTRDRHVSVDYLLQNLPNSPWTQALKEGKLWDRVQVLARDGNRYMSPSRLEYSDPEHFTQLMDQVGLPVSMGRQSHANSVKFEQFDRQAAVIVADGPNLREVPDLSPEKLQQLSQKDVLIADRNEKGQRTGTYTNVVEYERLMMKLPSDAAQLLAEPSDRYSRAFVRPEPALPPISDSRRTYESRPRGPTVNSL", "soluble on expression in E. coli": "soluble"}
{"sequence": "MRIPRIYHPEPLTSHSHIALCEDAANHIGRVLRMGPGQALQLFDGSNQVFDAEITSASKKSVEVKVLEGQIDDRESPLHIHLGQVMSRGEKMEFTIQKSIELGVSLITPLFSERCGVKLDSERLNKKLQQWQKIAIAACEQCGRNRVPEIRPAMDLEAWCAEQDEGLKLNLHPRASNSINTLPLPVERVRLLIGPEGGLSADEIAMTARYQFTDILLGPRVLRTETTALTAITALQVRFGDLG", "soluble on expression in E. coli": "soluble"}
{"sequence": "MMKKYLISLAKDQQRREQFFTQADTADFQVFDAVNTMQQEWDSLAVKYDITQFAQRYQRSVTKGEIGCTLSHLGVYQWIVADPQIGDNDYCLVCEDDALFNQDVQSSLTQLLSQNVHADIVLVGQSKIFGFDDAMLEIEYPTTFAPQMVAIGNSIYRYAYPYKNYYAGTVAYLIKKSTARKLVSITDLPFWLADDFILFEQQFGLDIMVVRPLMAIENPALCSNLETARASTQQALSKKLLKYPFKKWLAIQRNIGLKNDQCGNLEHHHHHH", "soluble on expression in E. coli": "not soluble"}
{"sequence": "MGSSHHHHHHSQDPTVPAQLQFSAKTLDGHDFHGESLLGKPAVLWFWAPWCPTCQGEAPVVGQVAASHPEVTFVGVAGLDQVPAMQEFVNKYPVKTFTQLADTDGSVWANFGVTQQPAYAFVDPHGNVDVVRGRMSQDELTRRVTALTSR", "soluble on expression in E. coli": "soluble"}
{"sequence": "MSLRITRIRLYKTDLPYVDGSYGWGAGNAITVARASVVVIDTDAGLQGCGEFTPCGENYMIAHSEGVDAFARLAAPQLLGQDPRQVARMERLMDHLVQGHGYAKAPFDAAFWDILGQATGQPVWMLLGGKLCDGAPMYRVAPQRSEAETRAELARHRAAGYRQFQIKVGADWQSDIDRIRACLPLLEPGEKAMADANQGWRVDNAIRLARATRDLDYILEQPCRSYEECQQVRRVADQPMKLDECVTGLHMAQRIVADRGAEICCLKISNLGGLSKARRTRDFLIDNRMPVVAEDSWGGEIASAAVAHFAASTPEEFLINSTDLMNYNTRSTGLGGPTVHQGRLYASDTPGLGVTPDFNSLGAPVADWALPEGHHHHHH", "soluble on expression in E. coli": "soluble"}
{"sequence": "MGSDKIHHHHHHMSLEKERIEKEHIEEMNQAKLRFFTNVSHEFRTPLTLIISQVELMLQKNTIPPSLHNSIFRIRKHAQQMKLLISELLDFRKFDQNYIQLKLSEQSLNTFLEEVYLSFSAYASQKSISYHLKLLEQDISIWIDDWQMRKVLFNLLSNAFKHVPDKGEISILTSTTPDQVVIAVKDSGNGISKEEQERIFDRFYQADNRNKAIHVGTGIGLALTKSIIQLHHGTIEVESELNEGSCFIVKLPKTRDCFEKDTEVVFLESPEKEPMVQENTIPDENFMKKDDSTFETPLIDEREGKRKVLLVEDNVELLQVLKEIFSSLYQVVTAANGEEGLKQAFAEVPDLIVSDVMMPVMTGTEMCLKIKNNINLCHIPVVLLTALDTVDQNIEGLRRGADDYITKPFNAKILITRCNNLIRNRLLMQSRFAKDQILEINLLAANPIDKGFLDRVIKVVDKHIDNEDFDIGMLCQELGMGRTLLHTKFKALTGMTPNEFILNHRLKIASLMLKNEPYLQVAEISDRLGFGSPRYFSRCFKNQYNVTPMEYRKGAKQENLK", "soluble on expression in E. coli": "not soluble"}
{"sequence": "MGSDKIHHHHHHMPSGGVLPVGVHATPMSVREEFDEWAASGRDKGMEDRHWHTAKDVLARMPVEDDDTVLDLGTGSGYAVRALRERGVARGYGLDGAPEMAANARTYTDDDDLAYVVGDFGSLPFADDAIDHVFSFEAFYYASDPRETLAEIRRVLKSGGTFYCGVNYYEENVHSHDWQDSISVEMTRWDRATYREAFRGAGLHVAAQDLIADTEIDIPAASEFPHEGFDSRADMVERYRTFGTLLTVGVAP", "soluble on expression in E. coli": "not soluble"}
{"sequence": "AHHHHHHGSAQLAGQPILILPEGTQRYVGRDAQRMNILAARIVAETIRTTLGPKGMDKMLVDSLGDIVITNDGATILDEMDIQHPAAKMMVEVAKTQDKEAGDGTTTAVVIAGELLRKAEELLDQNIHPSIIIKGYTLAAQKAQEILENIAKEVKPDDEEILLKAAMTSITGKAAEEEREYLAKLAVEAVKLVAEKEDGKYKVDIDNIKLEKKEGGSVRDTQLIRGVVIDKEVVHPGMPKRVEKAKIALINDALEVKETETDAEIRITSPEQLQAFLEQEERMLREMVEKIKEVGANVVFVQKGIDDLAQHYLAKYGIMAVRRVKKSDMEKLAKATGAKIVTNIRDLTPEDLGYAELVEERKVAGESMIFVEGCQNPKAVTILIRGGTEHVVDEVERALEDAIKVVKDILEDGKILAGGGAPEIELAIRLDEYAKEVGGKEQLAIEAFAEALKVIPRTLAENAGLDPIETLVKVIAAHKEKGPTIGVDVYEGEPADMLERGVIEPLRVKKQAIKSASEAAIMILRIDDVIAASKLEKEKEKEGEKGGGSEDFSSDLD", "soluble on expression in E. coli": "not soluble"}
